Measurements: paper PMC6144824

Biological target: mitoribosome large subunit (mtLSU, 39S) (human (endogenous in HEK293T and 143B))
Test: co-sedimentation

percent of total MTG1 co-sedimenting with mtLSU markers: 10%
Substance: MTG1 (human mitochondrial ribosome assembly GTPase), endogenous (natural protein)
